Results: patent publication US12145987B2, “Method for depleting cytotoxic T cells using an anti-LAG-3 antibody composition” (Daiichi Sankyo Company, Limited, priority 2017, dated 2024)

T1: immunoglobulin-like domains of human LAG-3 (Homo sapiens, UniProt P18627)
T1 construct: expressed in transfected cells; host or cells: HEK293T cells, pcDNA3.1 plasmids, transient transfection
T1 sequence (P18627 263-525): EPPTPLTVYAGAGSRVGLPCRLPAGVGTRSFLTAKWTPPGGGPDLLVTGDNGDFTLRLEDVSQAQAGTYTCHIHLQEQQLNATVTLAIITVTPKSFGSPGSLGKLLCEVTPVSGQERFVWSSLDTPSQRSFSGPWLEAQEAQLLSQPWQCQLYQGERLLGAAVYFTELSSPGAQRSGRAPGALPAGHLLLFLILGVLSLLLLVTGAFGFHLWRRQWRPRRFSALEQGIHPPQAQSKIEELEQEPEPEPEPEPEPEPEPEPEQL

T2: immunoglobulin-like domains of human LAG-3 (Homo sapiens, UniProt P18627)
T2 construct: expressed in transfected cells; host or cells: HEK293T cells, pcDNA3.1 plasmids, transient transfection
T2 sequence (P18627 353-525): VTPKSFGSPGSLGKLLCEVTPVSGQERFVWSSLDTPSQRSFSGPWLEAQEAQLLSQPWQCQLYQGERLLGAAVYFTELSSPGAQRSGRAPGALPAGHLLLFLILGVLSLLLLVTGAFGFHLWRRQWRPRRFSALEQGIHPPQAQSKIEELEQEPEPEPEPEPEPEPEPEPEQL


How the values were obtained:
[1] = target: T3, binding of LAG-3 to MHC class II molecules (Homo sapiens, UniProt P18627); assay: LAG-3/MHC class II binding test (LAG-3-Fc binding to Raji cells, flow cytometry); details: rat antibodies evaluated at 10 μg/mL
T3 construct: purchased R&D Systems, Inc
T3 sequence (P18627 with tags, fused parts or gaps limits assumed): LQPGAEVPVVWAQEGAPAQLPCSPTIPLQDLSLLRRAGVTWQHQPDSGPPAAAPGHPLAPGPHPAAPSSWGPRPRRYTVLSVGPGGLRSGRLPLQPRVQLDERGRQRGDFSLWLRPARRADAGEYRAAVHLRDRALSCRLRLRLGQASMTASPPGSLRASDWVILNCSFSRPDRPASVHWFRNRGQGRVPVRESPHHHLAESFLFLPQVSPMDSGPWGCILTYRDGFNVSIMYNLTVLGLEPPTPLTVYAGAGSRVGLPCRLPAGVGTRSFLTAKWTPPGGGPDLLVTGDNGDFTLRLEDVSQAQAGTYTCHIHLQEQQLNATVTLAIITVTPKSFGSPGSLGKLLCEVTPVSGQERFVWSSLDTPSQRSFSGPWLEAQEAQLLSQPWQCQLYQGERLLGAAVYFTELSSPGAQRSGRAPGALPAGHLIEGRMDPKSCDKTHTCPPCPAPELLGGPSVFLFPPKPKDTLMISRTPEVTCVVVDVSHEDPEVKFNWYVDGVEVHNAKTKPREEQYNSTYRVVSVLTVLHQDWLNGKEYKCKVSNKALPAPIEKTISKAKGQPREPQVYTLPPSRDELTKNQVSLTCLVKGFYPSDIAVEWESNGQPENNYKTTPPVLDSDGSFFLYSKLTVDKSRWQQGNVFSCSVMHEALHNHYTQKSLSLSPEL
Method: This was conducted according to a previous report (Non Patent Literature 8). That is, 20 μL/well of LAG-3-Fc (manufactured by R&D Systems, Inc.) diluted with RPMI1640 containing 10% FBS to 25 nM was added to a 96-well U-bottom microplate, and 20 μL/well of the hybridoma culture supernatant was added thereto, followed by stirring and standing at 4° C. for 20 minutes. Then, 10 µL/well (2.5×10^5 cells/well) of Raji cells, which endogenously highly express MHC class II molecules, was added thereto, followed by stirring and standing at 4° C. for a further 30 minutes. The cells were washed twice with PBS or a FACS buffer, then an Anti-Human IgG PE conjugate (manufactured by Jackson ImmunoResearch Laboratories, Inc.) diluted 200-fold with a FACS buffer was added thereto for suspension, followed by standing at 4° C. for 20 minutes. After washing with PBS or a FACS buffer, the cells were resuspended in PBS containing 1 to 2% paraformaldehyde, followed by detection using a flow cytometer (CantoII: manufactured by Becton, Dickinson and Company or FC500: manufactured by Beckman Coulter Inc). The data was analyzed using FlowJo (manufactured by Tree Star Inc.), and the percentage of inhibition was calculated by the following formula. Percentage of inhibition (%)=100−(A−B)/(C−B)×100 • A: Mean fluorescence intensity of each sample well • B: Mean fluorescence intensity of background
When adding LAG-3-Fc and the antibody, 20 μL of a medium was added each time. Except for that, the same operation as in the sample well was performed. • C: Mean fluorescence intensity of maximum binding
When adding the antibody, 20 μL of a medium was added thereto.

[2] = tested on: immunoglobulin-like domains of human LAG-3; assay: Identification of epitope: flow cytometry on HEK293T cells expressing human LAG-3 domain deletion constructs; assay type: binding; details: concluded from binding to deletion constructs
Description: (§1) Based on the fact that the rat anti-LAG-3 antibodies rLA204, rLA212, rLA225, rLA869, and rLA1264 are antibodies developed using a mutant deficient in the 1st and 2nd domains (which will be hereinafter referred to respectively as domains 1 and 2) from the N terminus out of the four immunoglobulin-like domains present in the extracellular region of LAG-3 as an immunogen, in order to reveal which of the remaining 3rd and 4th domains (which will be hereinafter referred to respectively as domains 3 and 4) from the N terminus these antibodies bind to, binding of the obtained rat anti-LAG-3 antibodies to cells expressing domains 3 and 4, or only domain 4, was investigated by flow cytometry.
(§2) Each expression plasmid (cloned into pcDNA3.1) of either domain 3 and onwards (263-525) or domain 4 and onwards (353-525) of human LAG-3 with a FLAG tag sequence (DYKDDDDK) (SEQ ID NO:87) added to the N terminus was introduced into HEK293T cells using Lipofectamine 2000 (manufactured by Life Technologies Corp.), and the cells were cultured for 1 day and then recovered, to investigate the binding activity of the antibodies by flow cytometry according to the method described in Example 1)-4.
(§3) In addition to the two types of constructs in FIG. 5A, expression plasmids were used of domain 2 and onwards (amino acid positions 173-525 of the human LAG-3 amino acid sequence in SEQ ID No: 86, FIG. 101) of human LAG-3 with a FLAG tag sequence (DYKDDDDK) (SEQ ID NO:87) added to the N terminus and the full length of human LAG-3 (both were constructed using pcDNA3.1; the nucleotide sequence encoding the amino acid sequence of human LAG-3 is described in SEQ ID No: 85, FIG. 100).

[3] = target: T1, immunoglobulin-like domains of human LAG-3; assay: as above; assay type: binding; details: FLAG-tagged 263-525, HEK293T cells, 10 μg/mL
Description: as §1, §2, §3

[4] = target: T2, immunoglobulin-like domains of human LAG-3; assay: as above; assay type: binding; details: FLAG-tagged 353-525, HEK293T cells, 10 μg/mL
Description: as §1, §2, §3

inhibitory activity in the LAG-3/MHC class II binding test [1]	binding to cells expressing the construct containing domains 3 and 4 of human LAG-3 [3]	binding to cells expressing the construct containing only domain 4 of human LAG-3 [4]	Molecule	immunoglobulin-like domain of LAG-3 bound (epitope) [2]
almost no inhibitory activity			rLA869: anti-human LAG-3 rat monoclonal antibody; heavy chain variable region SEQ ID No: 14, light chain variable region SEQ ID No: 16 (antibody, listed as Rattus norvegicus, V domains shown) VH: EVQLVESGGGLVQPGRSLKLSCAASGFTYRTYVMAWVRQGPTQGLEWVASISTGGVSTYYRDSVKGRFTISRDNAKNTLYLQMDSLRSEDTATYYCAKDMLNGYNSQGLFDYWGQGVMVTVSS VL: NIVMTQSPKSMSISVGDRVTMNCRASQNVDNTIAWYQQKPGQSPKLLIYFASDRYTGVPDRFTGGGYGTDFTLTINSVQAEDAAFYYCQRIYNSPLTFGSGTKLEIRRA	domain 3
almost no inhibitory activity	bound	none of them bound	rLA225: anti-human LAG-3 rat monoclonal antibody; heavy chain variable region SEQ ID No: 10, light chain variable region SEQ ID No: 12 (antibody, listed as Rattus norvegicus, V domains shown) VH: EVQLVESGGGLVQPGRSMKLSCVASGFTFSNYYMAWVRQAPTKGLEWVASISTGGGNTYYRDSVKGRFTISRDNAKSTLYLQMDSLRSEDTATYYCARPPYGYNYGWFTYWGQGTLVTVSS VL: DIQMTQSPASLSASLGETVTIECRASEDIHNGLVWYQQKPGKSPQLLIYNANSMHTGVPSRFSGSGSGTQYSLKINSLQSEDVASYFCQQYYNYPRTFGGGTKLELKRA	domain 3
almost no inhibitory activity	bound	none of them bound	rLA204: anti-human LAG-3 rat monoclonal antibody; heavy chain variable region SEQ ID No: 2, light chain variable region SEQ ID No: 4 (antibody, listed as Rattus norvegicus, V domains shown) VH: EVELVESGGGLVQPGRSMKLSCAASGFTFRTYGMAWVRQAPTKGLEWVASISTGGGSTYYRDSVKGRFTISRDNAKSTLYLQMDSLRSEDTATYYCTTDLINYPGIGGFAFWGQGTLVTVSS VL: NIVMTQSPKSMSISVGDRVTMNCKASQNVYNNIAWYQQKPGKSPKLLIYYASNRYTGVPDRFTGSGSGTDFTLTIHSVQAEDAAFYYCQRLYNSPPTFGGGTKLELKRA	domain 3
almost no inhibitory activity			rLA1264: anti-human LAG-3 rat monoclonal antibody; heavy chain variable region SEQ ID No: 18, light chain variable region SEQ ID No: 20 (antibody, listed as Rattus norvegicus, V domains shown) VH: EVQLVESGGGLVQPGRSLKLSCAASGFTFSSYYMAWVRQAPTKGLEWVAYISNGGYSTYYRDSVKGRFTISRENAKSTLYLQMDSLRSEDTATYYCTITDHSGYRFTYWGQGTLVTVSS VL: DIQMTQSPSLLSASVGDRVTLSCKASQSIYNSLAWYQQKLGEAPKLLIYDANSLQTGIPSRFSGSGSGTDFTLTISSLQPEDVATYFCQKYYSGNTFGAGTKLELKRA	domain 3
almost no inhibitory activity	bound	none of them bound	rLA212: anti-human LAG-3 rat monoclonal antibody; heavy chain variable region SEQ ID No: 6, light chain variable region SEQ ID No: 8 (antibody, listed as Rattus norvegicus, V domains shown) VH: EVQLVESGGGLVQPGRSLKLSCAASGFTYRSYVMAWVRQAPTRGLEWVASISTGGGNTYYRDSVKGRFTISRDNAKNTLYLQMDSLRSEDTATYYCAEDMSNSGYGLFDYWGQGVMVTVSS VL: NIVMTQSPKSMSISVGDRVTMNCKAGQNVDNNIAWYQKKPGQSPKLLIYYASNRNTGVPDRFTGGGYGTDFTLTINSVQAEDAAFYYCQRISNSPYTFGAGTELELKRA	domain 3
